From patent US20230265208A1 (Dana-Farber, published 2023)

T1: MUC1-ECD (human, UniProt P15941 1098-1155)
T1 construct: also called Ag MUC1-ECD; Antigen MUC1-ECD
T1 sequence: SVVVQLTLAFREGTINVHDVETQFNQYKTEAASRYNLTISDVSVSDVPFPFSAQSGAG

T2: WT p58/p62 heterodimer (human, UniProt P15941 1036-1097, limits assumed)
T2 construct: domain: 62 amino acid region (p62) of the SEA domain; Construct limits and tags are not described; also called p62/p58 heterodimer; WT protein
T2 sequence 1: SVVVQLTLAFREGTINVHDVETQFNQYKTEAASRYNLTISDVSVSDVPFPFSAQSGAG
T2 sequence 2: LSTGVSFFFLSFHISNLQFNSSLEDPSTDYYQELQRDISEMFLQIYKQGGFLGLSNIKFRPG


Assays:
MUC1-ECD [1] = target: T1, MUC1-ECD; assay: SPR Biacore T200, antibody on chip, MUC1-ECD analyte, 1:1 fit
WT p58/p62 heterodimer = target: T2, WT p58/p62 heterodimer; assay: left panel, Absorbance against Concentration (nM). The panel does not name the target. The axis points to the ELISA on WT p58/p62 of the legend, while the legend's first sentence speaks of MFI on HCT116 cells.
MUC1-ECD [2] = target: T1, MUC1-ECD; assay: SPR (Biacore), 1:1 fit; panel 'GO-702h'; analyte cell empty, antigen at 1.875-60 nM by the legend; same numbers as Table 7 prints for VH5 + VL3

Row | Binder | Kd (MUC1-ECD [1]) [nM] | koff (MUC1-ECD [1]) [s⁻¹] | kon (MUC1-ECD [1]) [M⁻¹ s⁻¹] | EC50 (WT p58/p62 heterodimer) [nM] | Kd (MUC1-ECD [2]) [nM] | koff (MUC1-ECD [2]) [s⁻¹] | kon (MUC1-ECD [2]) [M⁻¹ s⁻¹]
1 | VH5 + VL2 (antibody, V domains shown) VH: EVQLVQSGAEVKKPGESLKISCKGSGYAFSNFWMNWVRQMPGKGLEWMGQIYPGDGDTNYNGKFKGQVTISADKSISTAYLQWSSLKASDTAMYYCARSYYRSAWFAYWGQGTLVTVSL VL: EIVMTQSPATLSVSPGERATLSCRASQSIGTSIHWYQQKPGQAPRLLIYYASESISGIPARFSGSGSGTEFTLTISSLQSEDFAVYYCQQSNNWPLTFGGGTKVEIK | 2.75 | 0.00125 | 455000 | – | – | – | –
2 | VH2 + VL3 (antibody, V domains shown) VH: QVQLVQSGAEVKKPGASVKVSCKASGYAFSNFWMNWVRQAPGQGLEWMGQIYPGDGDTNYNGKFKGRVTMTRDTSTSTVYMELSSLRSEDTAVYYCARSYYRSAWFAYWGQGTLVTVSS VL: EIVLTQSPATLSLSPGERATLSCRASQSIGTSIHWYQQKPGQAPRLLIYYASESISGIPARFSGSGSGTDFTLTISSLEPEDFAVYYCQQSNNWPLTFGGGTKVEIK | 3.6 | 0.00145 | 404000 | – | – | – | –
3 | VH1 + VL3 (antibody, V domains shown) VH: QVQLVQSGAEVKKPGSSVKVSCKASGYAFSNFWMNWVRQAPGQGLEWMGQIYPGDGDTNYNGKFKGRVTITADKSTSTAYMELSSLRSEDTAVYYCARSYYRSAWFAYWGQGTLVTVSS VL: EIVLTQSPATLSLSPGERATLSCRASQSIGTSIHWYQQKPGQAPRLLIYYASESISGIPARFSGSGSGTDFTLTISSLEPEDFAVYYCQQSNNWPLTFGGGTKVEIK | 5.23 | 0.00222 | 425000 | – | – | – | –
4 | VH1 + VL4 (antibody, V domains shown) VH: QVQLVQSGAEVKKPGSSVKVSCKASGYAFSNFWMNWVRQAPGQGLEWMGQIYPGDGDTNYNGKFKGRVTITADKSTSTAYMELSSLRSEDTAVYYCARSYYRSAWFAYWGQGTLVTVSS VL: AIQLTQSPSSLSASVGDRVTITCRASQSIGTSIHWYQQKPGKAPKLLIYYASESISGVPSRFSGSGSGTDFTLTISSLQPEDFATYYCQQSNNWPLTFGGGTKVEIK | 7.13 | 0.00315 | 442000 | – | – | – | –
5 | VH5 + VL3 (antibody, human IgG1, kappa, V domains shown, Full-length humanized IgG expressed in HEK293 and purified on protein A. Constant regions not specified; also called #23 (inferred from 5x5 numbering)) VH: EVQLVQSGAEVKKPGESLKISCKGSGFTFNYFWIEWVRQMPGKGLEWMGEILPGTGSTNYNEKFKGQVTISADKSISTAYLQWSSLKASDTAMYYCARYDYTSSMDYWGQGTLVTVSS VL: EIVLTQSPATLSLSPGERATLSCRASESVQYSGTSLMHWYQQKPGQAPRLLIYGASNVETGIPARFSGSGSGTDFTLTISSLEPEDFAVYYCQQNWKVPWTFGQGTKVEIKR | 1.55 | 0.000844 | 545000 | – | – | – | –
6 | GO-702m (antibody, V domains shown, Mouse monoclonal antibody, detected with anti-mouse IgG kappa) VH: QVQLQQSGAELMKPGASVKISCKAIGFTFNYFWIEWVKQRPGHGLEWIGEILPGTGSTNYNEKFKGKAIFTADTSSNTAYMQLRSLTSEDSAVYYCVRYDYTSSMDYWGQGTSVTVSS VL: DIVLTQSPGSLAVSLGQSVTISCRASESVQYSGTSLMHWYQQKPGQPPKLLIYGASNVETGVPARFSGSGSGTDFSLNIHPVEEDDIAMYFCQQNWKVPWTFGGGTKLEIK | – | – | – | 0.6 | – | – | –
7 | GO-702h wild-type (antibody, copies: 2 + 2) heavy: not shown light: EIVLTQSPATLSLSPGERATLSCRASESVQYSGTSLMHWYQQKPGQAPRLLIYGASNVETGIPARFSGSGSGTDFTLTISSLEPEDFAVYYCQQNWKVPWTFGQGTKVEIKRTVAAPSVFIFPPSDEQLKSGTASVVCLLNNFYPREAKVQWKVDNALQSGNSQESVTEQDSKDSTYSLSSTLTLSKADYEKHKVYACEVTHQGLSSPVTKSFNRGEC | – | – | – | – | 1.55 | 0.000844 | 545000
